Data on 51 molecules can be found in patent publication US20260365696A1, “INHIBITORS OF PTP1B / NCK1 INTERACTION AND METHODS OF MAKING AND USING SAME” (Radella Pharmaceuticals LLC, priority 2023, published 2026).

Where only a bound is given, the exact number is not on record here.

First the molecules themselves.
T1: NCK1 SH3-2 domain (human)
T1 chain: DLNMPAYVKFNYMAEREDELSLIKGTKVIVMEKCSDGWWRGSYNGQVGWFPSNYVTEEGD

The first assay has as its target T1, NCK1 SH3-2 domain. The assay can be described thus: ITC.
Settings: not given
What is called Kd is the equilibrium constant for the complex coming apart. Read a high Kd as a looser complex. Turning to Ac-SPRPPKR-NH2 [MH074], the Kd is less than 300 µM.

Ac-CPRPPKR-NH2 [MH070] displayed a Kd of less than 300 µM.

As for Ac-MPRPPKR-NH2 [MH109], the Kd is less than 300 µM. Ac-YPRPPKR-NH2 [MH119] came in with a Kd of less than 300 µM. Same read-out and setting: the same measure for Ac-HPRPPKR-NH2 [MH072]: less than 300 µM; for Ac-EPRPPKR-NH2 [MH071]: less than 300 µM. On to Ac-NPRPPKR-NH2 [MH069], for which the Kd was less than 300 µM. Ac-GPRPPKR-NH2 [MH091] displayed a Kd of less than 300 µM. On the same count and under the same terms, with Ac-WPRPPKR-NH2 [MH117] the figure was less than 300 µM. The same measure, in the same setting: with Ac-QPRPPKR-NH2 [MH086] the figure was less than 300 µM; with Ac-LPRPPKR-NH2 [MH099], less than 600 µM; with Ac-KPRPPKR-NH2 [MH103], less than 300 µM. The same measure, in the same setting: with Ac-DPRPPKR-NH2 [MH083] the figure was less than 300 µM; with Ac-IPRPPKR-NH2 [MH095], less than 300 µM.

For a further assay, the target named is T2, SH3-2 domain of NCK1 (Homo sapiens, UniProt P16333).
T2 construct: To amplify the NCK1 SH3-2 domain, the primers; 10xHis tag with TEV site (vector pSF-OXB20-NH2-10HIS) (N, cleaved yes); made in house; host or cells: E. coli C43(DE3)
As to the kind of experiment: Isothermal titration calorimetry (ITC) binding to NCK1 SH3-2 domain. As to conditions: Alanine scanning of the MD20 6-mer peptide; ITC, 25 °C, pH 8.0. The text has this: Human PTP1B cDNA (NM_002827) and human NCK1 cDNA (NM 006153) were obtained (Origene, MD, USA). PTP1B Primers were designed to amplify the ORFs with added homology to the cut vector (EcoRI-digested pSF-OXB20-NH2-10HIS) in the forward primer sequence. To amplify full-length PTP1B, the primers ptp1b_FL_fwd ([…]) (SEQ ID NO: 159) and ptp1b_FL_rev ([…]) (SEQ ID NO: 160) were used. To amplify truncations of PTP1B, the following primer pairs were used: ptp1b_FL-Fwd and one of Ptplb_323stop_rev (gtgcaggaggagttcgaatt[…]) (SEQ ID NO: 161), ptp1b_344stop_rev ([…]) (SEQ ID NO: 162) or ptp1b_278stop_rev([…]) (SEQ ID NO: 163). To amplify the NCK1 SH3-2 domain, the primers ncklsh32_fwd ([…]) (SEQ ID NO: 164) and ncklsh32_rev ([…]) (SEQ ID NO: 165) were used. The amplified fragments were purified using a DNA clean-up kit according to manufacturer's instructions (QIAquick PCR purification kit, Qiagen).
To produce and purify fusion proteins, a culture was inoculated with 1% of overnight-cultured inoculum. Protein expression was carried out under the conditions described above, scaled up as necessary. Cells expressing the recombinant proteins were harvested in 50 mL tubes by centrifugation and stored at −80 °C. Cells containing the expressed gene product were thawed over ice and resuspended in Extraction buffer (10 mM Tris, pH 7.4 or 10 mM Sodium Phosphate, pH 8.0; 300 mM NaCl, 1 mM DTT or TCEP; 0-10% glycerol and 1 μg lysozyme) and sonicated over ice (4 °C) for 3 min total using pulses of 5 s with 15 s intervals, using a wide probe at 15 amplitude microns (Soniprep 150, MSE). Insoluble material was removed from the lysate by centrifugation at 20K rpm for 20-60 min at 4 °C. Supernatant was filtered through a 0.22 μm PVDF filter membrane and applied to 1-2 5 mL HisTrap FF Crude (Cytiva) prepacked Ni columns and connected to an AKTA explorer. After thorough washing with binding buffer (10 mM Tris, pH 7.4 or 10 mM Sodium Phosphate, pH 8.0; 300 mM NaCl; 1 mM DTT or TCEP and 25 mM Imidazole), protein was eluted using elution buffer (10 mM Tris, pH 7.4 or 10 mM Sodium Phosphate, pH 8.0; 150-300 mM NaCl; 1 mM DTT or TCEP and 250 mM Imidazole). Fractions containing protein of interest were confirmed by SDS PAGE. Protein was diluted with GF buffer (10 mM Tris, pH 7.4 or 10 mM Sodium Phosphate, pH 8.0; 150-300 mM NaCl) and subjected to TEV protease treatment overnight at 4-10 °C. Following proteolytic digestion, HIS-tag and TEV protease were removed by filtration through a clean 5 mL HisTrap FF Crude (Cytiva) prepacked Ni column. Protein was concentrated on a PES ultrafiltration device by centrifugation at 4000 rpm at 4 °C, and protein was polished via a HiPrep S-100 26/60 (Cytiva) using GF buffer (as described above). Purified proteins were concentrated using ultrafiltration, and protein concentration was determined using ultraviolet-visible spectroscopy. The integrity and identity of all proteins were verified by mass spectrographic analysis.
Isothermal titration calorimetry (ITC) was used to determine binding affinities for peptides against the SH3-2 domain of NCK1. Experiments were conducted at 25 °C using either a MicroCal iTC200 or MicroCal PEAQ-ITC calorimeter. The buffer used for all ITC experiments was 10 mM sodium [COMPOUND LEFT OUT] mM sodium chloride (pH=8.0). A series of peptides (concentration 3-7.5 mM) were titrated in to NCK1 SH3-2 domain (concentration 0.125-0.3 mM) using the following conditions: one injection of 0.2 μL followed by 19 injections of 2 μL, 120-150 seconds spacing between injections, at 25 °C. The data were fit using analysis software provided by the manufacturer and affinity values were calculated. The best fitting occurred when the number of sites was between 0.8 and 1.2. The experiments were repeated twice for a total of three times, and the average binding affinity for each peptide was generated. […]
On the technique in general: Isothermal titration calorimetry measures the heat released or taken up as one component is titrated into another.
Ac-PRAPKR-NH2 [MH010, Ac-PRAPKR-NH2] showed a Kd of more than 1000 µM. Same read-out and setting: with Ac-PRPAKR-NH2 [MH011, Ac-PRPAKR-NH2] the figure was more than 1000 µM; with Ac-PRPPAR-NH2 [MH012, Ac-PRPPAR-NH2], 300 to 600 µM; with Ac-PRPPKA-NH2 [MH013, Ac-PRPPKA-NH2], more than 1000 µM.

Still in this assay, the particulars now being: ITC.
With Ac-PRPPK-NH2 [MH022, Ac-PRPPK-NH2], the “binding to NCK1 SH3-2 domain (in words)” value was “abolished binding”. Regarding Ac-PRPPKA-NH2 [MH013, Ac-PRPPKA-NH2], the “binding to NCK1 SH3-2 domain (in words)” value was “abolished binding”.

The same assay, now with this note: Modified MD18/MD20 peptides; ITC, 25 °C, pH 8.0.
Molecule H-PPRPPKR-NH2 [MH075, H-PPRPPKR-NH2] displayed a Kd not above 300 µM. As to H-PRPPKR-NH2 [MH080, H-PRPPKR-NH2], the Kd is more than 1000 µM.

The same assay, now with this note: N- or C-terminal extensions; ITC, 25 °C, pH 8.0; 30-mers tested one to three times.
“Ac-SVQDQWKELSHEDLEPPPEHIPPPPRPPKR-NH2 [MH136]” came in with a Kd not above 300 µM. On the same count and under the same terms, the same measure for “Ac-WKELSHEDLEPPPEHIPPPPRPPKR-NH2 [MH135]”: not above 300 µM.

Still in this assay, the particulars now being: Peptide truncation analysis; ITC, 25 °C, pH 8.0.
As to Ac-PRPPK-NH2 [MH022, Ac-PRPPK-NH2], the Kd is more than 1000 µM. Ac-RPPKR-NH2 [MH018, Ac-RPPKR-NH2] yielded a Kd of more than 1000 µM.

The same assay, now with this note: exemplary control peptides; ITC, 25 °C, pH 8.0.
The molecule “Ac-SPAKGEPSLPEK-NH2 [MH133, reference compound]” registered a Kd of more than 1000 µM.

As to “H-PAVPPRP-NH2 [MH081, H-PAVPPRP-NH2, reference compound]”, the dissociation constant Kd was more than 1000 µM.

The same assay, now with this note: substitutions at position 1 of MD18; ITC, 25 °C, pH 8.0.
With Ac-QPRPPKR-NH2 [MH086, Ac-QPRPPKR-NH2], the Kd is not above 300 µM. On the same count and under the same terms, the same measure for Ac-RPRPPKR-NH2 [MH068, Ac-RPRPPKR-NH2]: not above 300 µM; for Ac-SPRPPKR-NH2 [MH074, Ac-SPRPPKR-NH2]: not above 300 µM; for Ac-TPRPPKR-NH2 [MH113, Ac-TPRPPKR-NH2]: not above 300 µM. For Ac-VPRPPKR-NH2 [MH123, Ac-VPRPPKR-NH2], the Kd is not above 300 µM. The same measure, in the same setting: with Ac-WPRPPKR-NH2 [MH117, Ac-WPRPPKR-NH2] the figure was not above 300 µM.

The molecule Ac-YPRPPKR-NH2 [MH119, Ac-YPRPPKR-NH2] displayed an equilibrium dissociation constant (Kd) not above 300 µM.

Staying with this assay, now noted: substitutions at position 3 of MD18; ITC, 25 °C, pH 8.0.
Ac-PPWPPKR-NH2 [MH056, Ac-PPWPPKR-NH2] gave a Kd of 300 to 600 µM.

As to Ac-PPYPPKR-NH2 [MH120, Ac-PPYPPKR-NH2], the dissociation constant Kd is not above 300 µM.

The next assay deals with T1, NCK1 SH3-2 domain. The assay can be described thus: ITC.
Settings: not given
This is another data set of the same source.
Ac-RPPK-NH2 [MH016] displayed a Kd of more than 1000 µM.

The molecule Ac-PPPRPPKR-NH2 [MH024] yielded a Kd of less than 300 µM.

Consider Ac-IPPPPRPPKR-NH2 [MH026], for which the Kd was less than 300 µM. Same read-out and setting: with Ac-PRPPK-NH2 [MH022] the figure was more than 1000 µM. The same measure, in the same setting: with PKR [MH014] the figure was more than 1000 µM; with Ac-PRPP-NH2 [MH021], more than 1000 µM.

Molecule RPP [MH020] returned a Kd of more than 1000 µM. Same read-out and setting: the same measure for PPK [MH015]: more than 1000 µM; for Ac-HIPPPPRPPKR-NH2 [MH027]: less than 300 µM; for Ac-PPEHIPPPPRPPKR-NH2 [MH030]: less than 300 µM. On the same count and under the same terms, with Ac-RPPKR-NH2 [MH018] the figure was more than 1000 µM; with Ac-PPPPRPPKR-NH2 [MH025], less than 300 µM. Ac-PPKR-NH2 [MH017] gave a Kd of more than 1000 µM. On the same count and under the same terms, the same measure for PRP [MH019]: more than 1000 µM; for Ac-EHIPPPPRPPKR-NH2 [MH028]: less than 300 µM; for Ac-PEHIPPPPRPPKR-NH2 [MH029]: less than 300 µM.
